What all share (settings): protein: recombinant; tags: N-terminal His-SUMO removed by TEV; label: 5'-6-FAM; predicted intramolecular fold
In one data set the target is T1, PARP4 BRCT F39Q (human, UniProt Q9UKK3 1-100, F39Q).
T1 sequence: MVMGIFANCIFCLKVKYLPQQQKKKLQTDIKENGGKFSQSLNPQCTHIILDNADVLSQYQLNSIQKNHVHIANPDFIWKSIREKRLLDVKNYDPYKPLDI
Put plainly: EMSA; 20 nM probe; FP: 50 mM Tris pH 7.5, 50 mM NaCl, 1 mM MgCl2, 0.05% NP40, 2 mM DTT, 5% glycerol, 25 ug/ml BSA, room temp 30 min; EMSA: 50 mM Tris pH 7.5, 50 mM NaCl, 4% Ficoll PM400, 0.05% NP40, 2 mM DTT, 0-18 uM protein, room temp 30 min, gel at 4 C. Background: In EMSA bound probe runs differently from free probe, usually more slowly.

The target of data set [1] is T2, PARP4 BRCT WT (human, UniProt Q9UKK3 1-100).
T2 sequence: T1 sequence with Q39F
The description is as above.

The target of data set [2] is T2, PARP4 BRCT WT. Put plainly: FP; 3 nM probe, probe concentration comparison; FP: 50 mM Tris pH 7.5, 50 mM NaCl, 1 mM MgCl2, 0.05% NP40, 2 mM DTT, 5% glycerol, 25 ug/ml BSA, room temp 30 min; EMSA: 50 mM Tris pH 7.5, 50 mM NaCl, 4% Ficoll PM400, 0.05% NP40, 2 mM DTT, 0-18 uM protein, room temp 30 min, gel at 4 C.

Numbering of substitutions follows the chain as printed.

B1: vtRNA1-3 (structured_RNA)
RNA: GGCUGGCUUUAGCUCAGCGGUUACUUCGCGUGUCAUCAAACCACCUCUCUGGGUUGUUCGAGACCCGCGGGCGCUCUCCAGCCCUCUU
A word on the Kd: it is the equilibrium constant for the complex coming apart. Consider B1, for which the Kd was 900 ± 500 nM in the data set with PARP4 BRCT F39Q, 500 ± 200 nM with PARP4 BRCT WT [1] and 19000 ± 3000 nM in the data set with PARP4 BRCT WT [2].
